The record followed here is FireProtDB (doi:10.1016/j.jmb.2003.11.056).

For the data set the following is noted: Escherichia coli (strain K12), Thermal, Fluorescence, whole UniProt chain shown.

“And” between values parts separate entries of the source, which are not always exact repeats. Identical values can stand only once.

Broadly, the Tm is the temperature at which the thermal transition is half complete.

B1: Iron-sulfur cluster assembly protein CyaY wild type, P27838 (protein)
chain: MNDSEFHRLADQLWLTIEERLDDWDGDSDIDCEINGGVLTITFENGSKIIINRQEPLHQVWLATKQGGYHFDLKGDEWICDRSGETFWDLLEQAATQQAGETVSFR
Consider B1, for which the Tm by setting is: (pH 7, phosphate 20 mM) 53.2 °C and 53.9 °C and 53.8 °C; (pH 7.2, Hepes 10 mM) 49.2 °C and 50.9 °C.
